Changes are numbered by the printed parent chain.
T1: human CXCR2 (human, UniProt P25025 1-360)
T1 construct: Expressed on Flp-In CHO cells (FACS, Fab-ZAP, ADCC, CDC) or on bought PathHunter CHO cells (beta-arrestin assay); the construct in the PathHunter cells is not described; also called chemokine receptor CXCR2; CXCR2 CHO Flp-In cells
T1 sequence: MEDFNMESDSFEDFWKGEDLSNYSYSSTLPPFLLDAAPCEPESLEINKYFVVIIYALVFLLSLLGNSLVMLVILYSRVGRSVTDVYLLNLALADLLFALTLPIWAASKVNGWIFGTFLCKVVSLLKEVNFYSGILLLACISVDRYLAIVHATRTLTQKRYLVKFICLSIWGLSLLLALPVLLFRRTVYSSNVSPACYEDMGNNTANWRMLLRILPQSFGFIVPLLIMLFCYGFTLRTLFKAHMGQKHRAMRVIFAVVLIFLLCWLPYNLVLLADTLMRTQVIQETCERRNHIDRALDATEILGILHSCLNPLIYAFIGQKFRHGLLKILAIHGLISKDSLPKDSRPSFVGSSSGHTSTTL

B1: CX2-Mab #18 (Fab, V domains shown)
VH: EVQLLESGGGLVQPGGSLRLSCAASGFTFSRYAMSWVRQAPGKGLEWVSVISSDGGTTYYADSVKGRFTISRDNSKNTLYLQMNSLRAEDTAVYYCARIFSYALDYWGQGTLVTVSS
VL: DIVLTQPPSVSGAPGQRVTISCSGSSSNIGSYYVNWYQQLPGTAPKLLIYRNSKRPSGVPDRFSGSKSGTSASLAITGLQAEDEADYYCSSYDAHSDSVVFGGGTKLTVLG
B2: CX2-Mab #19 (Fab, V domains shown)
VH: EVQLVQSGAEVKKPGESLKISCKGSGYSFTSYWISWVRQMPGKGLEWMGIIDPANSYTRYSPSFQGQVTISADKSISTAYLQWSSLKASDTAMYYCARVERRPRYYGSNYYGMDVWGQGTLVTVSS
VL: B1 VL with Y32N, R51G, K54N, S91V, Y92R, A94S, H95E, S96G, D97R, S98Y
B3: CX2-Mab #15 (Fab, V domains shown)
VH: EVQLLESGGGLVQPGGSLRLSCAASGFTFSRYWMSWVRQAPGKGLEWVSVISYSGSETYYADSVKGRFTISRDNSKNTLYLQMNSLRAEDTAVYYCARGRAYGYFDPWGQGTLVTVSS
VL: DIVLTQPPSVSGAPGQRVTISCSGSSSNIGKKTVSWYQQLPGTAPKLLIYRNNQRPSGVPDRFSGSKSGTSASLAITGLQAEDEADYYCGSTTSSHLYVFGGGTKLTVLG
B4: CX2-Mab #17 (Fab, V domains shown)
VH: B3 VH with R31S, W33S, V50Y, Y53S, S54A, E57N, P107Y
VL: DIVLTQPPSVSGAPGQRVTISCSGSSSNIGSNTVYWYQQLPGTAPKLLISSNTKRPSGVPDRFSGSKSGTSASLAITGLQAEDEADYYCQVTDFRLHHVVFGGGTKLTVLG
B5: CX2-Mab #10 (Fab, V domains shown)
VH: B3 VH
VL: DIVLTQPPSVSGAPGQRVTISCSGSSSNIGKKTVSWYQQLPGTAPKLLIYRNNQRPSGVPDRFSGSKSGTSASLAITGLQAEDEADYYCSSTTSSSRSVVFGGGTKLTVLG
B6: CX2-Mab #16 (Fab, V domains shown)
VH: B3 VH
VL: B3 VL with T93G, S94Y, S95R, H96G
B7: CX2-Mab #12 (Fab, V domains shown)
VH: B3 VH with E1Q
VL: B5 VL with S90Q, T93D, S95T, S96H, S98M, V99A
B8: CX2-Mab #14 (Fab, V domains shown)
VH: QVQLQQSGPGLVKPSQTLSLTCAISGDSVSSNSAAWNWIRQSPSRGLEWLGRIYYRSKWYNDYAVSVKSRITINPDTSKNQFSLQLNSVTPEDTAVYYCARDVPYYSDYSHYVYYYGAWFDVWGQGTLVTVSS
VL: DIELTQPPSVSVSPGQTASITCSGDSIPYNYAHWYQQKPGQAPVLVIYDDSDRPSGIPERFSGSNSGNTATLTISGTQAEDEADYYCGAYDKKWVVFGGGTKLTVLG
B9: CX2-Mab #11 (Fab, V domains shown)
VH: QVQLVQSGAEVKKPGSSVKVSCKASGGTFTDYAISWVRQAPGQGLEWMGGIIPIFGTANYAQKFQGRVTITADESTSTAYMELSSLRSEDTAVYYCARHSYSFDYWGQGTLVTVSS
VL: DIELTQPPSVSVSPGQTASITCSGDNLRKKYAYWYQQKPGQAPVLVIGSKSNRPSGIPERFSGSNSGNTATLTISGTQAEDEADYYCQSYDSGRVVFGGGTKLTVLG
B10: CX2-Mab #3.2 (antibody, IgG1, V domains shown)
VH: QVQLLESGGGLVQPGGSLRLSCAASGFTFSSYAMSWVRQAPGKGLEWVSLISQGGLTYYADSVKGRFTISRDNSKNTLYLQMNSLRAEDTAVYYCARGRVGYAFDYWGQGTLVTVSS
VL: DIVLTQPPSVSGAPGQRVTISCSGSSSNIGVNYVNWYQQLPGTAPKLLIYSNNQRPSGVPDRFSGSKSGTSASLAITGLQAEDEADYYCQSRASGFYSVVFGGGTKLTVLG
B11: CX2-Mab #1.1 (antibody, IgG1, V domains shown)
VH: QVQLVQSGAEVKKPGSSVKVSCKASGGTFSSYAISWVRQAPGQGLEWMGGIIPIVGEAKYAQKFQGRVTITADESTSTAYMELSSLRSEDTAVYYCARDSSGYDGYYAFAYWGQGTQVTVSS
VL: DIVLTQPPSVSGAPGQRGTISCSGSSSNIGSSSVNWYQQLPGTAPKLLIYRNNQRPSGVPDRFSGSKSGTSASLAITGLQAEDEADYYCGSTDMSTNSIVFGGGTKLTVLG
B12: CX2-Mab #1.3 (antibody, IgG1, V domains shown)
VH: B11 VH
VL: DIVLTQPPSVSGAPGQRGTISCSGSSSNIGSSSVNWYQQLPGTAPKLLIYRNNQRPSGVPDRFSGSKSGTSASLAITGLQAEDEADYYCAVTTKPQGIVFGGGTKLTVLG
B13: CX2-Mab #1.6 (antibody, IgG1, V domains shown)
VH: B11 VH
VL: B11 VL with G90A, T92R, M94H, S95F, T96S, N97H, S98G, I99L
B14: CX2-Mab #1.4 (antibody, IgG1, V domains shown)
VH: B11 VH
VL: B12 VL with V91S, T93D, K94I, P95S, Q96R, G97V
B15: CX2-Mab #4.1 (antibody, IgG1, V domains shown)
VH: QVQLVQSGAEVKKPGSSVKVSCKASGGTFSSYAISWVRQAPGQGLEWMGHIPPNEGTPWYAQKFQGRVTITADESTSTAYMELSSLRSEDTAVYYCARGYGFDVWGQGTLVTVSS
VL: DIVLTQPPSVSGAPGQRVTISCSGSSSNIGVNIVNWYQQLPGTAPKLLIYSTSNRPSGVPDRFSGSKSGTSASLAITGLQAEDEADYYCATRDGISKSVVFGGGTKLTVLG
B16: CX2-Mab #4.2 (antibody, IgG1, V domains shown)
VH: QVQLLESGGGLVQPGGSLRLSCAASGFTFSSNGMSWVRQAPGKGLEWVSAISSSGSKTYYADSVKGRFTISRDNSKNTLYLQMNSLRAEDTAVYYCARGYGFDVWGQGTLVTVSS
VL: B15 VL with A90G, R92Y, G94V, I95Q, K97H, S98Q, V99M

target: T2, ECL3 peptide aa273-295, BSA-coupled (human; bovine, coupled to carrier protein BSA; C-terminal cysteine introduced to enable coupling); experiment: ELISA, coated peptide-BSA, Fab
T2 construct: also called CXCR2 aa273-295 BSA; peptides representing the extracellular domain 3
Procedure: (§1) 384-well Maxisorp plates (Nunc; Cat. #460518) were coated with respective CXCR2 and control peptides coupled either to BSA or Transferrin (TRF) at 1-5 μg/mL and incubated o/n at 4° C. […] After three washing steps, antibodies were added at 5-10 μg/mL and titrated in some experiments. Antibodies were incubated 1 h at room temperature and plates were subsequently washed. Binding of anti-CXCR2 antibodies was detected by using alkaline phosphatase-conjugated anti-human IgG, (Dianova, Cat #109-055-097). AttoPhos fluorescence substrate (Roche, Cat #1484281) was added according to instructions of the manufacturer and fluorescence was measured (excitation at 430 nm, emission at 535 nm) using a microplate reader.

T2 sequence (peptide, as listed by the source limits assumed, chain 1 of 2): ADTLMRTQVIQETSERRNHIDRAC
T2 sequence (P02769 25-607 limits assumed, chain 2 of 2): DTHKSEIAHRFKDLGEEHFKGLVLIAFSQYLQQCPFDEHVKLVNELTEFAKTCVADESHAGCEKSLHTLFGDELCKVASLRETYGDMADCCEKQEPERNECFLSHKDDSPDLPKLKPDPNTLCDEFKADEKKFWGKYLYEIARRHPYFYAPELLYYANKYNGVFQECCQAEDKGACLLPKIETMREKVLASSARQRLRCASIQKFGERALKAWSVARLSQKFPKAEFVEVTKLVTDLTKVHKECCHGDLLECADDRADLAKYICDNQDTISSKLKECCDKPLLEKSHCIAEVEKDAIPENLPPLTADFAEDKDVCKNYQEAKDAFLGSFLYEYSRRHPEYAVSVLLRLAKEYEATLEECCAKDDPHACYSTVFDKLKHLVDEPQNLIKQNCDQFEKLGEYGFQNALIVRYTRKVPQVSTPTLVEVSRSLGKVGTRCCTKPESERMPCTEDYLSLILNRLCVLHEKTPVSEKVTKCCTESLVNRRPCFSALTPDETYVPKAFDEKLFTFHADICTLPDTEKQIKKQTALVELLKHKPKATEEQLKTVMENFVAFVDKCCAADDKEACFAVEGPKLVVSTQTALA

| binding result | Binder |
| --- | --- |
| binds | B1 |
| binds | B2 |
| binds | B3 |
| binds | B4 |
| binds | B5 |
| binds | B6 |
| binds | B7 |

target: T3, hu_CXCR2_N-term (1-17)-BSA (human; bovine, coupled to carrier protein BSA; C-terminal cysteine introduced to enable coupling); experiment: ELISA, coated peptide-BSA, Fab
T3 construct: Synthetic linear peptide chemically coupled to the carrier; also called CXCR2_aa1-17_BSA; CXCR2 aa1-17 BSA
Procedure: as §1

T3 sequence (P02769 25-607 limits assumed): as the sequence (P02769 25-607 limits assumed, chain 2 of 2) above

| binding result | Binder |
| --- | --- |
| binds | B1 |
| binds | B2 |
| binds | B3 |
| binds | B4 |
| binds | B5 |
| binds | B6 |
| binds | B7 |

target: T4, N-terminal peptide aa1-48, BSA-coupled (human; bovine, coupled to carrier protein BSA; C-terminal cysteine introduced to enable coupling); experiment: ELISA, coated peptide-BSA, Fab
T4 construct: also called CXCR2 aa1-48 BSA
Procedure: as §1

| binding result | Binder |
| --- | --- |
| binds | B8 |
| binds | B1 |
| binds | B2 |
| binds | B3 |
| binds | B4 |
| binds | B5 |
| binds | B6 |
| binds | B7 |
| binds | B9 |

target: T1, human CXCR2; experiment: FACS, CXCR2 CHO Flp-In cells, IgG1
Procedure: (§2) Human CXCR2-expressing Flp-In™ CHO cells were harvested at ˜80% confluence washed once with PBS (Gibco, Cat #14190-094) and detached using Versene (Invitrogen, Cat #15040-033). Subsequently, cells were counted and centrifuged at 250×g for 5 min at 4° C. Afterwards, cells were diluted in Superblock (Thermo Fisher Perbio Science, Cat #37515) to a cell concentration of 2E+05-1E+06/mL and 100 μL/well were transferred to 96-well microtiter plate (Nunc, Cat#163320). Cells were once centrifuged, supernatant discarded and antibodies added at 1 μg/mL (unless stated otherwise), incubated for 1 h at 4° C. and washed twice with FACS buffer (PBS/3% FCS/0.02% NaN3). Binding of anti-CXCR2 antibodies was detected by incubation of Phycoerythrin-conjugated anti-human IgG (Dianova, Cat #109-116-097) for 1 h at 4° C. Samples were subsequently measured using FACS Array (Becton Dickinson).

| binding result | Binder |
| --- | --- |
| binds | B10 |
| binds | B11 |
| binds | B12 |
| binds | B13 |
| binds | B14 |
| binds | B15 |
| binds | B16 |

target: T1, human CXCR2; experiment: FACS, CXCR2 CHO Flp-In cells, Fab
Procedure: as §2

| binding result | Binder |
| --- | --- |
| binds | B8 |
| binds | B1 |
| binds | B2 |
| binds | B3 |
| binds | B4 |
| binds | B5 |
| binds | B6 |
| binds | B7 |
| binds | B9 |

target: T3, hu_CXCR2_N-term (1-17)-BSA; experiment: ELISA, coated peptide-BSA, IgG1
Procedure: as §1

| binding result | Binder |
| --- | --- |
| binds | B10 |
| binds | B11 |
| binds | B12 |
| binds | B13 |
| binds | B14 |
| binds | B15 |
| binds | B16 |

target: T4, N-terminal peptide aa1-48, BSA-coupled; experiment: ELISA, coated peptide-BSA, IgG1
Procedure: as §1
Target sequence in this assay (P02769 25-607 limits assumed): as the sequence (P02769 25-607 limits assumed, chain 2 of 2) above

| binding result | Binder |
| --- | --- |
| binds | B10 |
| binds | B11 |
| binds | B12 |
| binds | B13 |
| binds | B14 |
| binds | B15 |
| binds | B16 |
